Consider 18 sequences from the supplement of paper PMC12455559.

A short description of this data set: purified protein yield per well (BCA); higher = higher soluble expression. A digest of the protocol:
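Each candidate enzyme was grown in E. coli C41(DE3) in a 2 mL autoinduction culture (100 µg/mL kanamycin; 2 h at 37 °C, then 40 h at 18 °C) and purified robotically via Ni-charged magnetic beads with SUMO protease cleavage. Purified protein yield per well was assessed using the Pierce Rapid Gold BCA kit. Readings below 25 ug (0.1 mg/mL) are beneath the detection threshold.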
In the case of “GPGMEGNPYQRGPAPTTASIEAPTGAFAVSNASVPGGNGFGGGTLTYPTDTSQGTFGAVVVTPGFLSPEMKWYGPRLASQGFVVLTIATNTAVDQPGARAAQMLAALRYLVEQSPVKNRVDGSRLAVMGHSMGGGGSLEAAEAYPALKAAIPLEPWDLGKSFSAVRTPTLIVGGQSDWIAPVGQHAVPFYNSIPAGVNKAYIELAGGSHFVPMSPNVTIAKYSIAWLKRFVDNDTRYDQFLCPVPQAAALSVSKGTCPHT [TEP175]”, the “purified protein yield per well” value is < 25 µg.

For the sequence “ADNPYERGPAPTNSSIEATRGPFAVSDTRVSSLVSGFGGGTIYYPTSTSSGTFGAVVISPGFTGTQSSIDWLGPRIASQGFVVFTIDTITIYDQPDSRASQLLAALDYLTQRSDVRSRIDASRLGVMGHSMGGGGTLRAAAQRPSLQAAIPLTGWHTTKNWSSVSVPTLVIGAESDSVAPVATHSEPFYTSLPSTLDKAYLELNNASHFAPNLPDTTIAKYSISWLKRFIDNDTRYEQFLCPGPGRSTQVEEYRNTCPNS [TEP025]”, the “purified protein yield per well” value was < 25 µg.

On to “LTLDDLKKDGPYAISAQTIPASGFGKGTVYSPNTPGKYALVAVCPGFVSAESSITEISKRLATHGFVVVTIGTKTLLDFPSSRASQLLAALKAASAVTTGPAAGKIDVTRQVVAGWSMGGGGTLEAAAATPGLKAAVAYAPWNLSSSKYKSITVPSAIIGGTADSVAPVSSHSQPFYNAIPATTPKLLGVIQGADHFFPNKAAEPASYTNIAWVKRFADGDTQYGVFLRGQDAAWASFVSTGPF [ESM117]”, for which the “purified protein yield per well” value was < 25 µg.

With “AANPYERGPAPTTAVLEAARGPFATTSAAIARTSSFGGGTVYYPTDTSQGTFGAVAISPGFSATQSSVAWYGPRLASHGFVVVTINTLSGWDDPDSRARQLLAALDYLTNTHAVRTRIDKTRLGVMGHSMGGGGALRASVSRPSLQAAIPLAPWHNTKNWSSDGVPTLIVGAENDTVAPVNQHAEPFYTSITGAPDKAYLELNNAGHSAPSSEGPNVTVGKFSVAWLKRFIDNDTRYEQFLCPAPRPDTRINEYRDTCPHS [TEP084]”, the “purified protein yield per well” value was < 25 µg.

As for “DPTAFAVHGPDPTAQSVQAQRGPYATSRTTVSSGTGFNRGTIYYPTTTSEGTFSAVAVIPGFTESESTMSWYGTTLSSHGFVVFTLEAEGGLDFPDARADQLLAALDYLVNSSSVRDRVDRNRLGVMGHSMGGGGTLEAANERPSLRAAIPLAAWHNTKNFPQVQAATLVISAEGDSVASPASHSEPFYQGLRSAEKAYLELNNGNHFTTNSYTPTVTKYAVSWLKRFLDDDTRYSQFLCPPPPPDSNINEYRHTCPV [DP055]”, the “purified protein yield per well” value is < 25 µg.

“QSNPYARGPDPTTAALEASRGPFAFSSFSVTRPSGYGAGTVYYPTNAGGTVGAIAIVPGFFARQSSINWWGPRLASHGFVVITIDTNSTFDQPASRASQQMAALRQVATLAGTSSSPIYRKVDTARLGVMGWSMGGGGTLLAARDNPSLKAAAPQAPWNSSTTNFSSMTVPTLIIACESDSTAPTRSHAEPFYTSMSRNSKQYLEINNGSHSCANGGSNTGLLGKKGVAWMKRFMDEDRRYTSFACSNPNSSAVSDFRTANCS [ESM149]”: the “purified protein yield per well” value is < 25 µg.

Take “VQNGPAPTLAALKADGPYAITSQAVAGNGFGAGTIYTPTAAGKYALVAICPGFVSAQSTMAGLAKRLATHGFVVVAISTNTLLDFPSSRATQLLAALKTVSALNTGAVAGKVDTTRQAVSGWSMGGGGTLEAAGATPGLVAAVAFAPWDTSTTKMKVNKVPAAIIGGSSDAVAPVASHSQKFYD [ESM063]”: the “purified protein yield per well” value was < 25 µg.

“RPSSAATSLAATQRGPDPTVAMIEATRGPFATAQVSVPSGHGFGGGMIYYPTDTSLGTWGALAIVPGYSALFANEEAWMGPWLSSFGFVVIGVETNTRTDSDSQRAAELQAALDYLTTQSPVRNQVDPTRLSVLGHSAGGAGAIEEAEQHPSLRALIGLAPGFPGQGLSMATDKVPSLIIGGQADGTVTPSYLANLYGTLPASTQSAFAQIAGADHVYYTHPNNVEMKLIIPWLKLFVDGDNRYQQFLCPALPDPSTISAYQPKCPYTPPGGSTSSSSSSTTTTTTTTSTTPTSTSSSPSGSCSATYQTQNYWPGGFQGLVTVTAGSAPISKWTVKWTLSSGQTITQVWNGTLSTSGSAVSVANVSYNGSLSPGTSTTFGFLANGPTSAPTLSCTGS [ESM039]”: the “purified protein yield per well” value is < 25 µg.

As to “DANPYQRGPAPTESSVAAEKGPFAVAQTDVPAGSGQGFNDGTIYYPTDTSQGTFGAVVVMPGFVSPQEWIRWYGPLLASQGFVVMTLDSNTLLDFPGARGDQILAALDYLTTKSKVVDRIDTGRLAVMGWSMGGGGTLEAAAERPSLKADIALAPWDLDNVAAKVKVPSMIIADDTDILAPTGVFAKPFYDAMSTAPDKAFFELKSANHFTFTSYNKTIAKYAVSWLKRFVDDDTRYDQFLCPKPAPSNEITQFEETCPLG [TEP059]”, the “purified protein yield per well” value was < 25 µg.

Consider “LWLGLGGVLSLIGFVVIGVETNSRTDYDVARGTQLLAALDYLTQQSPVRNRVDPNRLGVIGHSMGGGGVVYATEHRPALKAAVALAPFSPSQNMSTDTVPTMVMAGQNDTVVTPSYLSGLYATMPAATQSDFLQIAGADHVYYTHPNSVEMRILIPWIKTFLDNDTRYTQVICPGLAL [TEP112]”, for which the “purified protein yield per well” value was < 25 µg.

On to “MYYPTTTSVGTFGAVAIAPGYTARESSIAWLGPRLASQGFVVFTIDTITTQDQPSSRGDQLRAALSYVATESSVRTRVDGSRLAVMGHSMGGGGSLQAAKDDPSIRAVIPMTPYDLDKTWPEVVAPTLVIGAEDDTVAPVSRHAEPFYESLTQASEKAYLELRGASHFAPNVSNTTIASASIAWLKRHVDADTRYERFICPAPAVSLQISEYRSTC [TEP079]”, for which the “purified protein yield per well” value is < 25 µg.

On to “QTSPDCSAITISSSTNTGVNLVSTYLESDGIRNGTDYYGSTIYYPQNTTSILASIIIVPGYLNFESSMQNWGPFLASHGIVCMTIGTNNIFDLVNDRKEALQDALISLKAENTRVNSPLFNKLNTSRVALAGWSMGGGGAQLAAVEDSTIKAIIALCPWIDPMQISVNSLIHDVPVLFFSGQFDAVAPSSTHANIHYNYTPSTTDKLIYEISSGGHTVANVPSGGQGEVGRMALSWLKKYLIEDYCYCPLLLDTPLTASIYQTNVTCSTYGCTDSIALNYDPLATTDDGTCIYCVYGCTDSTSVNYAPLAICDDGTCIASVYGCTNATACNYYAGANINDGSCEWTSCNPTSCGASAITGLGVTNVIHDRVTLTFDNMNTYDTSGAQICRVDQLRIKYREVGTSSWSQKNMAAPTGYDPTTGICNSTQNTDKLVLGLSGSTTYEWEMRVWYCVTGATAWVVGPDFTTADNCPNIGSFTAYGSNPIRATFDWDDSNGSYEFVRIKMRVDSISNPQGTDWFQVGGFGVTYGTFTKDKNGLVAGETYRAQARTWCDPNGGAYNSLSWTALATW [TEP033]”, for which the “purified protein yield per well” value was < 25 µg.

On to “AGNPYQRGPDPTVASVAATSGPFATAQLSVPPGNGFNGGMIYYPTDTSLGTWGAVAIVPGYTALFANEEAWMGPWLASFGFVVIGVETNSRTDYDVARGTELLAALDYLTQQSPVRDRVDATRLGVIGHSMGGGGVVYATEHRPSLKSAVALAPFSPSQTMATDTVPTMVMGGQNDTVVTPSYLSGLYATMPATTQSDFLQIAGADHVYYTHPNSVEMRILIPWIKTFIDNDTRYTQFLCPALADPTGVSIYQSKCPYVPGGSTPPPPTGGPVHAVGAGKCLDVPNSSTTGGTQLQIYTCDGQSNQTFTHTSTGALSVTDNGTTMCLDANGKGTTSGTKVIIWSCNGQTNQQWNVNSNGTITGVQSGLCLDVSGASTANGALVQLWTCNGQSNQQWKLG [TEP015]”, for which the “purified protein yield per well” value was < 25 µg.

Take “RPAESGASAAAVQATGTQRGPDPTIAMIEATRGPFATAQVSAPSGNGFGGGVVYYPTDTTQGTWGALAIVPGYSALCSTEEAWMGPWLSSFGFVVICTETNTRTDSDSQRAAELQAALTWLTTQSPVKSEVDPARLSVLGHSAGGAGAMEEAEQHPELRAAIGLAPGFPGQGLTLATDTVPTLIVGGQNDGTVTPSYLSNLYGTLPASTQSDFAQIAGADHVYYTHANNIEMKLIIPWLKVFVDSDTRYTQFLCPTLPDPSTISAYQPKCPYVPSGGSTPPPPTSVAIVGTGSGRCVTVPGGTQTGGTQVQLADCAGGTSQQWTNTATGQLQVFGTSCLDANARGTSPGTKVIIWSCNGQQNQQWTVHADGSITGVQSGLCLDATGAGTANGTPLELWTCNGGSNQKWTLQ [TEP132]”: the “purified protein yield per well” value is < 25 µg.

With “ATTSFRRGPDPSAASIRAANGPFAIAKTTVARQAGFGGGDIYAPTDTSRGTFGAVAIAPGFTATRSSLAWLAPRIASQGFVVFNIDTLTTSDQPAQRGRELLAALDFLTGSSTARAKIDRTRLAVMGHSMGGGGTLEAAKARPSLKAAVPLTPWDLTKNFATVKVPTMIIGAQSDTIAPPSRFSDQFFASLPAATNKGYLELAGASHFAPNIPNPTIASTSIAWLKRFVDGDTRFEQFLCPGPSSNGISEYQTNCPHKA [ESM129]”, the “purified protein yield per well” value is < 25 µg.

“ADNPYERGPDPTEQLIESARGPFATAQTRVSSLSVTGFGGGVIYYPTDTSQGTFGAVAISPGFTADWTSLDWLGPRLASHGFVVIGIDTITRLDQPDSRGRQLLAALDYLTQRSSVRSRVDASRLAVAGHSMGGGGSLEAAKSRTSLKAAIPLAPWNLDKTWPEVVTPTMIFGGELDTVAPVSTHAIPFYNSLTNAREKAYLEIDNGSHFFPNVSNTLVAKYMISWLKRYVDNDTRYEQFLCPVPDDRGLSDSRGTCPGS [TEP135]”: the “purified protein yield per well” value was < 25 µg.

For the sequence “MPRDGERKQKPEGARVRAYRAGPGSPPRPPRPVRLALLAVAFVTAAVAALFAVQPASAQPSAAAVTPNSTQRGPDPTIQSIEASRGTFATAQSSVAPGNGFNGGVIYYPTDTSQGTWGALAIVPGYTAKCANEEAWMGPWLASFGFVVICIETNSTTDFDVARGQELLAALNWLTTASPVRNEIDPNRLAVLGHSAGGAGAIEAAEQRPSLRAMIGLAPGFPGQGLSMLTDRVPTLVVGGQNDTVVTPSYLSGLYATMPASTQSAFAQIAGADHVYYTHANNVEMKLIIPWLKIFVDGDTRYEQFLCPTLPDPSTISIYQPKCPYVPPGGGSPSPSASASASASASASASASASASASASASASSSPSASASASASSSPSGVPAGGCAAVYQAVGSWPGGYQAQVTVTAGGAPITGWSVRWNLSSGQSISSLWNGSYTVSGSSVTVANASYNGTLAAGASTTFGFTANGAPSTPTLTCTGK [ESM145]”, the “purified protein yield per well” value was < 25 µg.

Regarding “QNCDSLLLESITNPGPYSVNDIDESAGIRNGSDYSGSTIYYPVNSNGNYASIVLVPGYMNTESTIQNWGPFLASHGIVTMTIGTNSLTDNHIQRKDALLDAIISLKNENNRLASPLYAKLATTTIAVGGFSKGGGGAQLAAVDAPDLKAVVALYPWLDNPSQSDLNHNIPVIIVSGELDLIAPPSSHADVHYDYTPNTTNKLKYEVEFASHDALSGPTGGNGEVGKRVFSWLQTYLLDDSCYCPLMLVPATTSSEYITNIVCDNVTQVSEFSYANKKLIKVIDLLGREAKENKNTPLFYIYDDGTVEKKIIIE [TEP087]”, the “purified protein yield per well” value was < 25 µg.
